# Laboratory results taken from patent US20100184701A1 (TREVENA, published 2010).
# Key:
# [1] = target: T1, human angiotensin 2 type 1 receptor (human, UniProt P30556 1-359); test: cell-based or functional assay
# T1 sequence (looked up): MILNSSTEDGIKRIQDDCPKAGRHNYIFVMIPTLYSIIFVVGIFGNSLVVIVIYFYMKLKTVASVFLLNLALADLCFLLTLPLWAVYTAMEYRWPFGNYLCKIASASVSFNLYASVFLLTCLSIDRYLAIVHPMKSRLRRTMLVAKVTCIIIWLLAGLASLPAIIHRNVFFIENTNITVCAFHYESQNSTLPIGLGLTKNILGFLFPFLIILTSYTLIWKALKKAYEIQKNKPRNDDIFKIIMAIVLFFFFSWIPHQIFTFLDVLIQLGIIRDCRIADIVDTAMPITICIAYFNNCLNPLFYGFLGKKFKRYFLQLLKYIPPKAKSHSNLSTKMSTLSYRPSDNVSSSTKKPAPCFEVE
# [2] = target: T2, rat angiotensin 2 type 1 receptor (rat, UniProt P25095 1-359); test: cell-based or functional assay
# T2 sequence (looked up): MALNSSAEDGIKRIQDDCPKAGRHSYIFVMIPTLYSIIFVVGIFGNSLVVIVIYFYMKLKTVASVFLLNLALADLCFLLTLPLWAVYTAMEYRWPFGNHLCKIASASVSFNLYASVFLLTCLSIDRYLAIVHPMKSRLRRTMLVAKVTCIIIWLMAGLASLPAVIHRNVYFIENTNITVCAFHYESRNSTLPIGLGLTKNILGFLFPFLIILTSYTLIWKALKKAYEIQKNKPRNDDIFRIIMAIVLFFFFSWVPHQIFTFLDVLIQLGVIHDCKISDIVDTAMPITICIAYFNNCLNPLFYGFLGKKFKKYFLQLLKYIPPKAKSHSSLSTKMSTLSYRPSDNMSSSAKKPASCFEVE
Binder,IP One EC50 (M) [1] [M],b-arrestin2 Max (%) [1] [%],IP One EC50 (M) [2] [M],b-arrestin2 Max (%) [2] [%],b-arrestin2 EC50 [2] [µM],b-arrestin2 EC50 [1] [µM]
DRVYFHP (N-Me-Asp (N-methyl-L-aspartic acid) at 1; C-terminal amide (NH2)) [SEQ ID NO: 65],> 1e-05,37.8,> 1e-05,67.3,–,–
ERVYFHP (N-Me-Glu (N-methyl-L-glutamic acid) at 1; C-terminal amide (NH2)) [SEQ ID NO: 66],> 1e-05,30.6,> 1e-05,58.5,10,–
ARVYIHPA (NM-D-Ala (N-methyl-D-alanine) at 1; D-Ala at 8) [SEQ ID NO: 82],> 1e-05,38.3,> 1e-05,60.6,–,–
DRVYFHP (C-terminal amide (NH2)) [SEQ ID NO: 63],> 1e-05,35.9,> 1e-05,50.1,–,–
ERVYFHP (C-terminal amide (NH2)) [SEQ ID NO: 64],> 1e-05,20.4,> 1e-05,26.9,–,1.2
RVYIHP (C-terminal amide (NH2)) [SEQ ID NO: 13],> 1e-05,43.4,> 1e-05,165,–,–
